Experimental data as given in patent US20050164166A1 (US Dept. of Health and Human Services, published 2005).

B1: Fab X5 (Fab, V domains shown)
VH: VQLLEQSGAEVKKPGSSVQVSCKASGGTFSMYGFNWVRQAPGHGLEWMGGIIPIFGTSNYAQKFRGRVTFTADQATSTAYMELTNLRSDDTAVYYCARDFGPDWEDGDSYDGSGRGFFDFWGQGTLVTVSS
VL: ELVLTQSPGTLSLSAGERATLSCRASQSVSSGSLAWYQQKPGQAPRLLIYGASTRATGIPDRFSGSGSGTDFTLTIGRLEPEDLAVYYCQQYGTSPYTFGQGTKLEIKR
B2: soluble scFv m6 (scFv, not shown: small tags and cut ends)
scFv: VLTQSPGTLSLSAGERATLSCRASQSVSSGSLAWYQQKPGQAPRLLIYGASTRATGIPDRFSGSGSGTDFTLTIGRLEPEDLAVYYCQQYGTSPYTFGQGTKLEIKRTGGGGSSGGASGGGGSVRLLEQSGAEVKKPGSSVQVSCKASGGTFSMYGVNWVRQAPGHGLEWMGGIIPIFGTSNYAQKFRGRVTFTADQATSTAYMELTNLRSDDTAVYYCARDFGPDWEDGDSYDGSGRGFFDFWGQGTLVTVSS

Key:
Assay in all cases: cell-based or functional assay
[1] = target: Env UG037.8 (clade A) (HIV-1)
[2] = target: Env RW020.5 (clade A) (HIV-1)
[3] = target: Env US715.6 (clade B) (HIV-1)
[4] = target: Env HT593.1 (clade B) (HIV-1)
[5] = target: Env US005.11 (clade B) (HIV-1)
[6] = target: Env 89.6 (clade B) (HIV-1, UniProt Q73372 32-853)
[7] = target: Env NL4-3 (clade B) (HIV-1)
[8] = target: Env BR025.9 (clade C) (HIV-1)
[9] = target: Env TH022.4 (clade EA) (HIV-1)
[10] = target: Env BR019.4 (clade F/B) (HIV-1)
[11] = target: Env UG975.10 (clade G) (HIV-1)

Binder	% of fusion inhibition (cell-cell fusion assay, syncytia count, antibody at 50 ug/ml) [1] [%]	% of fusion inhibition (cell-cell fusion assay, syncytia count, antibody at 50 ug/ml) [2] [%]	% of fusion inhibition (cell-cell fusion assay, syncytia count, antibody at 50 ug/ml) [3] [%]	% of fusion inhibition (cell-cell fusion assay, syncytia count, antibody at 50 ug/ml) [4] [%]	% of fusion inhibition (cell-cell fusion assay, syncytia count, antibody at 50 ug/ml) [5] [%]	% of fusion inhibition (cell-cell fusion assay, syncytia count, antibody at 50 ug/ml) [6] [%]	% of fusion inhibition (cell-cell fusion assay, syncytia count, antibody at 50 ug/ml) [7] [%]	% of fusion inhibition (cell-cell fusion assay, syncytia count, antibody at 50 ug/ml) [8] [%]	% of fusion inhibition (cell-cell fusion assay, syncytia count, antibody at 50 ug/ml) [9] [%]	% of fusion inhibition (cell-cell fusion assay, syncytia count, antibody at 50 ug/ml) [10] [%]	% of fusion inhibition (cell-cell fusion assay, syncytia count, antibody at 50 ug/ml) [11] [%]
B1	34	45	56	27	72	93	83	71	43	37	19
B2	66	56	27	50	83	98	100	57	72	37	48
